Measured values taken from US20190389923A1 (BIORION TECHNOLOGIES B V, published 2019).
Bridge positions count the residues as written; N and C are the ends. Ends that are not written are not given here.

Assays:
[1] = target: T1, PDGF-beta receptor on mouse 3T3 fibroblasts (mouse, UniProt P05622 32-1098); test: FITC-BiPPB on mouse 3T3 fibroblasts, fluorescence microscopy
T1 construct: whole, on cells; also called PDGFß-receptor; PDGF-receptor
Experimental: (§1) Cells were seeded in the 8-well glass plates (Lab-Tek, Nunc, Naperville, Ill.) at 30,000 cells/well in the culture medium. […] After 2 h, cells were washed 3 to 4 times with cold PBS and fixed with 4% paraformaldehyde. The nuclei were counterstained with DAPI and mounted in citifluor (anti-fade reagent) and visualized under fluorescent microscope.
(§2) Similar binding experiments were performed in primary freshly isolated human myofibroblasts, mouse 3T3 fibroblasts and human hepatic stellate cells (LX2).

[2] = target: T2, PDGF-beta receptor on primary freshly isolated rat hepatic stellate cells (rat, UniProt Q05030 32-1097); test: FITC-BiPPB on primary rat hepatic stellate cells, fluorescence microscopy
T2 construct: whole, on cells; also called PDGFß-receptor; PDGF-βR
T2 sequence (Q05030 32-1097): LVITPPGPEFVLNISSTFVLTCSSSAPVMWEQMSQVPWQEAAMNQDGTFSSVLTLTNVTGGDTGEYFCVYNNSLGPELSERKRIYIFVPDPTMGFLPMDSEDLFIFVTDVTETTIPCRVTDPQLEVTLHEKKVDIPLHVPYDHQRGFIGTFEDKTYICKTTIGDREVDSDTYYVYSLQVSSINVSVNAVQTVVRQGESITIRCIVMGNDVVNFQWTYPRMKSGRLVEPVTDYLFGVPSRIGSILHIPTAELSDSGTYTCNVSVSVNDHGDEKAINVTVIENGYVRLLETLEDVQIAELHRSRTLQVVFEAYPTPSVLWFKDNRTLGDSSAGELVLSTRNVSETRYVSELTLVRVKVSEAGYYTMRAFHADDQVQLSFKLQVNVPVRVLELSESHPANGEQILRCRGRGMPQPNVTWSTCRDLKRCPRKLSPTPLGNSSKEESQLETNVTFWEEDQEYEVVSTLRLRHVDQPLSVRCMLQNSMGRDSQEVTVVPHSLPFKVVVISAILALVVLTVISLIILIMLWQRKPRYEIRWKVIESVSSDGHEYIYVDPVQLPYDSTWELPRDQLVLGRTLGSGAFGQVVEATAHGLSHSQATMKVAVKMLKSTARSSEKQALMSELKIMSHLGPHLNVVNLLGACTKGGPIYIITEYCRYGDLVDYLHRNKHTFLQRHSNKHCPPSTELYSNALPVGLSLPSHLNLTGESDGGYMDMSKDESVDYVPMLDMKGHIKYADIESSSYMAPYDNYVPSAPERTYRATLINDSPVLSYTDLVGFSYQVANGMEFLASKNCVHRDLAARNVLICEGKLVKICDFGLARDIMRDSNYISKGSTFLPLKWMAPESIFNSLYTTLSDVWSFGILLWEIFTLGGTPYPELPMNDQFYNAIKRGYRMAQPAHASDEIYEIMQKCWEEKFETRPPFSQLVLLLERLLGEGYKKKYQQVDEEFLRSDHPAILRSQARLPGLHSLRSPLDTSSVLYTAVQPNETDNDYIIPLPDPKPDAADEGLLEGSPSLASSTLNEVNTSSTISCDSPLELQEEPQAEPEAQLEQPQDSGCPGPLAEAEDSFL
Experimental: as §1

[3] = target: T3, PDGF-beta receptor on human cells (primary human myofibroblasts; human hepatic stellate cells LX2) (human, UniProt P09619 33-1106); test: FITC-BiPPB on primary freshly isolated human myofibroblasts, fluorescence microscopy
T3 construct: whole, on cells; also called PDGFß-receptor; PDGF-βR
T3 sequence (P09619 33-1106): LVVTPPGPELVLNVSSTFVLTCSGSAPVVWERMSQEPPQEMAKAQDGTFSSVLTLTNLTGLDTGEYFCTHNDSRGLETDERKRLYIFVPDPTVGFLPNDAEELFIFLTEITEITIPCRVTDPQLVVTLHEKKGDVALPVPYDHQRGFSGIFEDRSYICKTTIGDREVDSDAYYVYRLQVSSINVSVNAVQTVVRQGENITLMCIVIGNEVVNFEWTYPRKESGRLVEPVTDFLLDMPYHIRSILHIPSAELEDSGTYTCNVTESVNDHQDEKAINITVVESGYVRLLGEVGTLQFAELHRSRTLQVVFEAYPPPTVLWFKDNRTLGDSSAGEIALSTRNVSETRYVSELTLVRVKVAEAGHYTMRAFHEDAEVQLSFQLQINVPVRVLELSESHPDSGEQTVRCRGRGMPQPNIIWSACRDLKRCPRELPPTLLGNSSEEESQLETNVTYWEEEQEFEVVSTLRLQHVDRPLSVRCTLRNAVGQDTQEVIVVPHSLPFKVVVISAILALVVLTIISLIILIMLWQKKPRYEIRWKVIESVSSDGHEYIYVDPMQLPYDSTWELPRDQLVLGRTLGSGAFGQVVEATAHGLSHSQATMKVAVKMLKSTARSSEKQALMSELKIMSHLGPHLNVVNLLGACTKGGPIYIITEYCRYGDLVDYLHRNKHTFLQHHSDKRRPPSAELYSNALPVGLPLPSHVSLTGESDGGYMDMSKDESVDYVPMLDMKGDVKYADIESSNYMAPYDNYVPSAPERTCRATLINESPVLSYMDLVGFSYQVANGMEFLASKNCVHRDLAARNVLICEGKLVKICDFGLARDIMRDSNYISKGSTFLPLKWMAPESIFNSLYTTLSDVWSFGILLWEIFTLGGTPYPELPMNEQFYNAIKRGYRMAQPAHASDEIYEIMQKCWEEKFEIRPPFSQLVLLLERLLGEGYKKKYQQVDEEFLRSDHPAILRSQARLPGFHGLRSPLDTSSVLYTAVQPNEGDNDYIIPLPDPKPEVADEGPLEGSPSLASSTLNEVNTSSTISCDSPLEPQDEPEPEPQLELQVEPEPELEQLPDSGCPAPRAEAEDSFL
Experimental: as §1, §2

Measured: binding result

T1 sequence (P05622 32-1098): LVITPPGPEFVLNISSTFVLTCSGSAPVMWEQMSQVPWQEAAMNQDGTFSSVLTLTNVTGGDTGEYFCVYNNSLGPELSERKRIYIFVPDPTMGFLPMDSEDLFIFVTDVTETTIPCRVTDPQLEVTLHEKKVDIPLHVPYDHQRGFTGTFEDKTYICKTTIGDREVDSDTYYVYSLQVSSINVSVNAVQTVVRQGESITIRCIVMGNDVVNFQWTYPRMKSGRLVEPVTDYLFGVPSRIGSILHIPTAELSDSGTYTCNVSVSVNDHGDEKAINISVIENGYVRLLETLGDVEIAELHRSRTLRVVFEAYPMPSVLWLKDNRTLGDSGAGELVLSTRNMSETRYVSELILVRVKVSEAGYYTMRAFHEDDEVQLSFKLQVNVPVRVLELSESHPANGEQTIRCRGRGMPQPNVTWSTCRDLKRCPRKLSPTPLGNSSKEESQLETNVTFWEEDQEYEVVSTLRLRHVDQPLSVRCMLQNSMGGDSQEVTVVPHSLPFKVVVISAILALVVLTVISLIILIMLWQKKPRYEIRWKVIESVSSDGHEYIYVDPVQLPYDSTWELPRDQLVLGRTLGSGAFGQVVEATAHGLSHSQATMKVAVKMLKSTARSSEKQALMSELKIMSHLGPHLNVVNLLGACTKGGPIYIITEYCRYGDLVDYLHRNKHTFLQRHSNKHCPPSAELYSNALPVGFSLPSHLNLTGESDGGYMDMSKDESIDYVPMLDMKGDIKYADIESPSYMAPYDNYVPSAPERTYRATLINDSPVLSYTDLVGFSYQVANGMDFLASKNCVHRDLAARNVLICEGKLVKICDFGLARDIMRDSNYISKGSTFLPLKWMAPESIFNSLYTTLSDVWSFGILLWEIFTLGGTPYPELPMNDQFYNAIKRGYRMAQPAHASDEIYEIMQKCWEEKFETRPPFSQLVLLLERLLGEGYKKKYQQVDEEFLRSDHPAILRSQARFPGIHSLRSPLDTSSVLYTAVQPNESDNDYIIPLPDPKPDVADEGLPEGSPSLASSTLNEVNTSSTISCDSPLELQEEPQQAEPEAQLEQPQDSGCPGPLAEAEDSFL

B1: BiPPB (bicyclic PDGF-beta-receptor binding peptide), C(1)SRNLIDC(1)GGGDGGC(2)SRNLIDC(2), FITC-labelled (peptide)
peptide: CSRNLIDCGGGDGGCSRNLIDC
modifications: disulfide 1-8, 15-22; also: FITC label (site not given here)
notes: Used on primary rat hepatic stellate cells; also called FITC-coupled BiPPB
binds: [1] | [2] | [3]
